Experimental data published in US20250011433A1 (GLIKNIK, published 2025).
Where two headings read alike, the source gives them in different places.

Columns and labels:
FcγRIIb [1] = target: T1, FcγRIIb (UniProt P31994 46-217, limits assumed); experiment: BLI (Octet)
T1 sequence (looked up): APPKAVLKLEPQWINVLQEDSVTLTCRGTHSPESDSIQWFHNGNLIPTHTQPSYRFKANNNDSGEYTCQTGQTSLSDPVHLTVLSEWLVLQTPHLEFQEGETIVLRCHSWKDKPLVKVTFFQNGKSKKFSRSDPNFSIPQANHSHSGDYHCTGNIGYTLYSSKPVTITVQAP
Method: (§1) Binding of complement-preferential stradomers or parent stradomer G045c to FcγRI, FcγRIIb, FcγRIIIa, FcγRIIa, or FcRn was assessed. RU values of dissociation were measured by biolayer interferometry using a ForteBio Octet instrument. His-tagged receptor proteins were bound to the sensor tip in 1× kinetic analysis buffer from ForteBio after which the on rate of the receptor/protein was measured by transferring the sensor tip to a 1× kinetics buffer containing the purified stradomer of choice. Off rate was measured by transferring the sensor tip to a 1× kinetics buffer, and RU value was calculated from the measured maximum binding using the ForteBio software. Biolayer interferometry detects the binding between a ligand immobilized on the biosensor tip surface and an analyte in solution. When binding occurs it produces an increase in optical thickness at the biosensor tip, which results in a wavelength shift (detected as a response unit of “RU”). The maximum binding level (RU max) is the maximum possible amount of sample binding at equilibrium that saturates the amount of ligand on the sensor surface. The RU 300 is the residual sample binding after 300 seconds of dissociation and is useful to characterize the rate of dissociation of the test article from the test ligand.

FcγRI [2] = target: T2, FcγRI (UniProt P12314 16-288); experiment: BLI (Octet)
T2 construct: also called CD64
T2 sequence (P12314 16-288 limits assumed): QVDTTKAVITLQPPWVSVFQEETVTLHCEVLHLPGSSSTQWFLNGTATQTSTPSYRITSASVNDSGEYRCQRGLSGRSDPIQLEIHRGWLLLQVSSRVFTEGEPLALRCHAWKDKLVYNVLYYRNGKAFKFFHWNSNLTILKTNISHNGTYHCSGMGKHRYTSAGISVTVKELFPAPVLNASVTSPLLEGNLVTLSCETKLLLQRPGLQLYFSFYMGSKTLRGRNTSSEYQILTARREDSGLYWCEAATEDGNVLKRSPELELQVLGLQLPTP
Method: as §1

C1q [3] = target: T3, C1q (UniProt P02745 23-245; P02746 28-253; P02747 29-245); experiment: ELISA on coated C1q
T3 construct: bought C1q coated on ELISA plates at 1 µg/ml; also called complement C1q; complement factor C1q
T3 sequence (P02745 23-245 limits assumed, chain 1 of 3): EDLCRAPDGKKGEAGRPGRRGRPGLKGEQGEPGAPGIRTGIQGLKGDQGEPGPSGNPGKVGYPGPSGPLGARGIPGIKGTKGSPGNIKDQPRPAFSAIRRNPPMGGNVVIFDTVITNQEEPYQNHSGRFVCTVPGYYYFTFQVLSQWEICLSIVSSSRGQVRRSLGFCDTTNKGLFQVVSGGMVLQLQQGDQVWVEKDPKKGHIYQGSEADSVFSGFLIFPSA
T3 sequence (P02746 28-253 limits assumed, chain 2 of 3): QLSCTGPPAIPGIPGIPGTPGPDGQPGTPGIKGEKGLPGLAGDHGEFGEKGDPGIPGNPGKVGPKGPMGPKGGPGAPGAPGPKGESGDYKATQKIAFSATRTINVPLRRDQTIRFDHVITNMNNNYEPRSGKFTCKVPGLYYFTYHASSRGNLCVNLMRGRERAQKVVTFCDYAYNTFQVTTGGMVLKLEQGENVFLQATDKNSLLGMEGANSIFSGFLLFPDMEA
T3 sequence (P02747 29-245 limits assumed, chain 3 of 3): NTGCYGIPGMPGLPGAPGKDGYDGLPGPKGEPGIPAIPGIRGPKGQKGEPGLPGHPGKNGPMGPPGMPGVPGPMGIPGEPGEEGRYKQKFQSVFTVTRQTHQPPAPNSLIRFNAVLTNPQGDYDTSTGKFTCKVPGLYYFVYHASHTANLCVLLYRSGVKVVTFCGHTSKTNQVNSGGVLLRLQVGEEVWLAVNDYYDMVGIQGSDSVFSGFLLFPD
Method: (§2) For C1q binding, 96 well plates were coated with C1q (Sigma Cat #: C1740 1 μg/ml) overnight in PBS. After coating, plates were washed 3 times with standard wash buffer (iX PBS+0.05% Tween 20) and blocked with blocking buffer (1% BSA+1× PBS+0.05% Tween 20) for 2 hours at RT. Following blocking, plates were incubated with compound diluted in blocking buffer 100 μL/well and washed 3 times with standard washing buffer. C1q-bound compound was detected by incubation with 1:5000 biotinylated mouse anti-human IgG1(Cat #555869, BD Biosciences) and Streptavidin-HRP (Cat #: 7100-05 Southern Biotech) (100 μl/well) for 1 hour at room temperature followed by washing 3 times with washing buffer, after which color was developed using the standard TMB method according to manufacturer's protocol for 15 minutes. Absorbance was read at 450 nm.

C1q [4] = target: T3, C1q; experiment: ELISA on coated C1q; remark: listed apart in the source
Method: as §2
(§3) For each stradomer in Tables 5-9, the level of canonical FcγR binding, complement C1q binding, and CDC inhibition were determined according to the methods described in Example 1.

FcγRIIb [5] = target: T1, FcγRIIb; experiment: BLI (Octet); remark: listed apart in the source
Method: as §1, §3

FcγRI [6] = target: T2, FcγRI; experiment: BLI (Octet); remark: listed apart in the source
Method: as §1, §3

Binder | binding result (FcγRIIb [1]) | binding result (FcγRI [2]) | binding result (C1q [3]) | binding result (C1q [4]) | binding result (FcγRIIb [5]) | binding result (FcγRI [6])
G1003 (Fc fusion, G019 background, S267E/H268F/S324T; leader 1-20 cleaved) ERKCCVECPPCPEPKSCDKTHTCPPCPAPELLGGPSVFLFPPKPKDTLMISRTPEVTCVVVDVEFEDPEVKFNWYVDGVEVHNAKTKPREEQYNSTYRVVSVLTVLHQDWLNGKEYKCKVTNKALPAPIEKTISKAKGQPREPQVYTLPPSREEMTKNQVSLTCLVKGFYPSDIAVEWESNGQPENNYKTTPPVLDSDGSFFLYSKLTVDKSRWQQGNVFSCSVMHEALHNHYTQKSLSLSPGK | binds | binds | binds | – | – | –
G1049 (Fc fusion, G019 background, S267E/H268F/S324T/L328F; leader 1-20 cleaved) ERKCCVECPPCPEPKSCDKTHTCPPCPAPELLGGPSVFLFPPKPKDTLMISRTPEVTCVVVDVEFEDPEVKFNWYVDGVEVHNAKTKPREEQYNSTYRVVSVLTVLHQDWLNGKEYKCKVTNKAFPAPIEKTISKAKGQPREPQVYTLPPSRDELTKNQVSLTCLVKGFYPSDIAVEWESNGQPENNYKTTPPVLDSDGSFFLYSKLTVDKSRWQQGNVFSCSVMHEALHNHYTQKSLSLSPGK | binds | binds | binds | – | – | –
G1109 (Fc fusion, G045c background, E233P/S267E/H268F/S324T; leader 1-20 cleaved) EPKSCDKTHTCPPCPAPPLLGGPSVFLFPPKPKDTLMISRTPEVTCVVVDVEFEDPEVKFNWYVDGVEVHNAKTKPREEQYNSTYRVVSVLTVLHQDWLNGKEYKCKVTNKALPAPIEKTISKAKGQPREPQVYTLPPSRDELTKNQVSLTCLVKGFYPSDIAVEWESNGQPENNYKTTPPVLDSDGSFFLYSKLTVDKSRWQQGNVFSCSVMHEALHNHYTQKSLSLSPGKERKCCVECPPCP | – | – | – | binds | binds | binds
G997 (Fc fusion, G045c background, S267E/H268F/S324T; leader 1-20 cleaved) EPKSCDKTHTCPPCPAPELLGGPSVFLFPPKPKDTLMISRTPEVTCVVVDVEFEDPEVKFNWYVDGVEVHNAKTKPREEQYNSTYRVVSVLTVLHQDWLNGKEYKCKVTNKALPAPIEKTISKAKGQPREPQVYTLPPSRDELTKNQVSLTCLVKGFYPSDIAVEWESNGQPENNYKTTPPVLDSDGSFFLYSKLTVDKSRWQQGNVFSCSVMHEALHNHYTQKSLSLSPGKERKCCVECPPCP | binds | binds | binds | – | – | –
G1100 (Fc fusion, G045c background, E233P/S267R/H268F/S324T; leader 1-20 cleaved) EPKSCDKTHTCPPCPAPPLLGGPSVFLFPPKPKDTLMISRTPEVTCVVVDVRFEDPEVKFNWYVDGVEVHNAKTKPREEQYNSTYRVVSVLTVLHQDWLNGKEYKCKVTNKALPAPIEKTISKAKGQPREPQVYTLPPSRDELTKNQVSLTCLVKGFYPSDIAVEWESNGQPENNYKTTPPVLDSDGSFFLYSKLTVDKSRWQQGNVFSCSVMHEALHNHYTQKSLSLSPGKERKCCVECPPCP | – | – | – | binds | – | binds
G1070 (Fc fusion, G045c background, S267K/H268F/S324T/N297A; leader 1-20 cleaved) EPKSCDKTHTCPPCPAPELLGGPSVFLFPPKPKDTLMISRTPEVTCVVVDVKFEDPEVKFNWYVDGVEVHNAKTKPREEQYASTYRVVSVLTVLHQDWLNGKEYKCKVTNKALPAPIEKTISKAKGQPREPQVYTLPPSRDELTKNQVSLTCLVKGFYPSDIAVEWESNGQPENNYKTTPPVLDSDGSFFLYSKLTVDKSRWQQGNVFSCSVMHEALHNHYTQKSLSLSPGKERKCCVECPPCP | – | – | – | binds | – | binds
G1132 (Fc fusion, G045c background, S267R/H268F/S324T/N297A; leader 1-20 cleaved) EPKSCDKTHTCPPCPAPELLGGPSVFLFPPKPKDTLMISRTPEVTCVVVDVRFEDPEVKFNWYVDGVEVHNAKTKPREEQYASTYRVVSVLTVLHQDWLNGKEYKCKVTNKALPAPIEKTISKAKGQPREPQVYTLPPSRDELTKNQVSLTCLVKGFYPSDIAVEWESNGQPENNYKTTPPVLDSDGSFFLYSKLTVDKSRWQQGNVFSCSVMHEALHNHYTQKSLSLSPGKERKCCVECPPCP | – | – | – | binds | – | binds
G1116 (Fc fusion, G045c background, E233P/G236H/S267K/H268F/S324T; leader 1-20 cleaved) EPKSCDKTHTCPPCPAPPLLHGPSVFLFPPKPKDTLMISRTPEVTCVVVDVKFEDPEVKFNWYVDGVEVHNAKTKPREEQYNSTYRVVSVLTVLHQDWLNGKEYKCKVTNKALPAPIEKTISKAKGQPREPQVYTLPPSRDELTKNQVSLTCLVKGFYPSDIAVEWESNGQPENNYKTTPPVLDSDGSFFLYSKLTVDKSRWQQGNVFSCSVMHEALHNHYTQKSLSLSPGKERKCCVECPPCP | – | – | – | binds | – | binds
G1123 (Fc fusion, G045c background, E233P/G236Q/S267R/H268F/S324T; leader 1-20 cleaved) EPKSCDKTHTCPPCPAPPLLQGPSVFLFPPKPKDTLMISRTPEVTCVVVDVRFEDPEVKFNWYVDGVEVHNAKTKPREEQYNSTYRVVSVLTVLHQDWLNGKEYKCKVTNKALPAPIEKTISKAKGQPREPQVYTLPPSRDELTKNQVSLTCLVKGFYPSDIAVEWESNGQPENNYKTTPPVLDSDGSFFLYSKLTVDKSRWQQGNVFSCSVMHEALHNHYTQKSLSLSPGKERKCCVECPPCP | – | – | – | binds | – | binds
G1093 (Fc fusion, G045c background, S267K/H268F/S324T/T299A; leader 1-20 cleaved) EPKSCDKTHTCPPCPAPELLGGPSVFLFPPKPKDTLMISRTPEVTCVVVDVKFEDPEVKFNWYVDGVEVHNAKTKPREEQYNSAYRVVSVLTVLHQDWLNGKEYKCKVTNKALPAPIEKTISKAKGQPREPQVYTLPPSRDELTKNQVSLTCLVKGFYPSDIAVEWESNGQPENNYKTTPPVLDSDGSFFLYSKLTVDKSRWQQGNVFSCSVMHEALHNHYTQKSLSLSPGKERKCCVECPPCP | – | – | – | binds | – | binds
G1032 (Fc fusion, G045c background, L234A/L235A/S267E/H268F/S324T; leader 1-20 cleaved) EPKSCDKTHTCPPCPAPEAAGGPSVFLFPPKPKDTLMISRTPEVTCVVVDVEFEDPEVKFNWYVDGVEVHNAKTKPREEQYNSTYRVVSVLTVLHQDWLNGKEYKCKVTNKALPAPIEKTISKAKGQPREPQVYTLPPSRDELTKNQVSLTCLVKGFYPSDIAVEWESNGQPENNYKTTPPVLDSDGSFFLYSKLTVDKSRWQQGNVFSCSVMHEALHNHYTQKSLSLSPGKERKCCVECPPCP | binds | binds | binds | – | – | –
G1096 (Fc fusion, G045c background, S267R/H268F/S324T/T299A; leader 1-20 cleaved) EPKSCDKTHTCPPCPAPELLGGPSVFLFPPKPKDTLMISRTPEVTCVVVDVRFEDPEVKFNWYVDGVEVHNAKTKPREEQYNSAYRVVSVLTVLHQDWLNGKEYKCKVTNKALPAPIEKTISKAKGQPREPQVYTLPPSRDELTKNQVSLTCLVKGFYPSDIAVEWESNGQPENNYKTTPPVLDSDGSFFLYSKLTVDKSRWQQGNVFSCSVMHEALHNHYTQKSLSLSPGKERKCCVECPPCP | – | – | – | binds | – | binds
G1119 (Fc fusion, G045c background, E233P/G236R/S267K/H268F/S324T; leader 1-20 cleaved) EPKSCDKTHTCPPCPAPPLLRGPSVFLFPPKPKDTLMISRTPEVTCVVVDVKFEDPEVKFNWYVDGVEVHNAKTKPREEQYNSTYRVVSVLTVLHQDWLNGKEYKCKVTNKALPAPIEKTISKAKGQPREPQVYTLPPSRDELTKNQVSLTCLVKGFYPSDIAVEWESNGQPENNYKTTPPVLDSDGSFFLYSKLTVDKSRWQQGNVFSCSVMHEALHNHYTQKSLSLSPGKERKCCVECPPCP | – | – | – | binds | – | binds
G1112 (Fc fusion, G045c background, E233P/G236R/S267R/H268F/S324T; leader 1-20 cleaved) EPKSCDKTHTCPPCPAPPLLRGPSVFLFPPKPKDTLMISRTPEVTCVVVDVRFEDPEVKFNWYVDGVEVHNAKTKPREEQYNSTYRVVSVLTVLHQDWLNGKEYKCKVTNKALPAPIEKTISKAKGQPREPQVYTLPPSRDELTKNQVSLTCLVKGFYPSDIAVEWESNGQPENNYKTTPPVLDSDGSFFLYSKLTVDKSRWQQGNVFSCSVMHEALHNHYTQKSLSLSPGKERKCCVECPPCP | – | – | – | binds | – | binds
G1084 (Fc fusion, G045c background, E233P/S267K/H268F/S324T; leader 1-20 cleaved) EPKSCDKTHTCPPCPAPPLLGGPSVFLFPPKPKDTLMISRTPEVTCVVVDVKFEDPEVKFNWYVDGVEVHNAKTKPREEQYNSTYRVVSVLTVLHQDWLNGKEYKCKVTNKALPAPIEKTISKAKGQPREPQVYTLPPSRDELTKNQVSLTCLVKGFYPSDIAVEWESNGQPENNYKTTPPVLDSDGSFFLYSKLTVDKSRWQQGNVFSCSVMHEALHNHYTQKSLSLSPGKERKCCVECPPCP | – | – | – | binds | – | binds
